The text below walks through data of patent publication US20220276241A1 (TRUSTEES OF INDIANA UNIVERSITY, published 2022).

In this assay the target is T1, PhnD E177NΔ (E. coli, UniProt P16682 27-329, acrylodan on Cys 126).
T1 chain: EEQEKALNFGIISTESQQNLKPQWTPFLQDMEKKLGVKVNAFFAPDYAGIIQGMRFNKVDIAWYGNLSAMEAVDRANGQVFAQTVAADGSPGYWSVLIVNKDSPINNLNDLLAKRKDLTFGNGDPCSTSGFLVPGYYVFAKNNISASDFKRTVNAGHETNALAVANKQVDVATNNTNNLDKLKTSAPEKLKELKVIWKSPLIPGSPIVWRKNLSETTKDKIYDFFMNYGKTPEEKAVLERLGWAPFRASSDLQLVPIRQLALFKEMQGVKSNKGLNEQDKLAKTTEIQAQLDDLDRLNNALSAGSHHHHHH
The assay is described as follows: cell-based or functional assay.

B1: Fab N2 (Fab, V domains shown)
VH: EVQLVESGGGLVQPGGSLRLSCAASGFNFSSSIHWVRQAPGKGLEWVASISSSSGSTSYADSVKGRFTISADTSKNTAYLQMNSLRAEDTAVYYCARQWSSVMEWYIGLDYWGQGTLVTVSS
VL: DIQMTQSPSSLSASVGDRVTITCRASQSVSSAVAWYQQKPGKAPKLLIYSASSLYSGVPSRFSGSRSGTDFTLTISSLQPEDFATYYCQQSSSSLITFGQGTKVEIKR
Regarding B1, the “Kd of the PhnD mutant for glyphosate in the presence of Fab N2 (fluorescence titration)” value came out at 450 nM and the “fold improvement of the Kd for glyphosate on adding Fab N2, compared to the mutant in the absence of Fab N2” value is roughly 18 fold.
